Experimental findings from patent publication US8697117B2, “Drug-eluting films” (Ramot at Tel-Aviv University Ltd., priority 2010, dated 2014) are described below.

Format in all cases: physicochemical
A short description of series [1]: Morphological characterization of porous films by SEM (mean pore diameter, porosity). On the procedure: The morphology of the porous films (cryogenically fractured surfaces) was observed by scanning electron microscopy (SEM) using a JEOL JSM-6300 microscope at an accelerating voltage of 5 kV. The SEM samples were Au-sputtered prior to observation. The mean pore diameter (n=100 small pores or 50 large pores) and porosity of the observed morphologies were analyzed using the Sigma Scan Pro software, and statistics were calculated using SPSS 10 software. Statistical significance was determined based on ANOVA (Tukey-Kramer). The area occupied by the pores was calculated for each SEM fractograph using Sigma Scan Pro software in order to evaluate the porosity of the samples. Porosity was determined as the area occupied by the pores divided by the total area.

A short description of series [2]: Encapsulation efficiency of the loaded agent in the films.
Series [3] can be described thus: In vitro drug release from films in PBS at 37° C. (HPLC). Particulars: for time at which the drug was almost fully released: antibiotic-loaded 50:50 PDLGA films, O:A 6:1, 2% drug. How it is done:
Small films of 1.5 cm by 0.5 cm, were immersed in phosphate buffered saline (PBS) at 37° C. for 70 days in order to determine the various drug release kinetics therefrom in four repetitions. The release studies were conducted in closed glass tubes containing 3.0 ml PBS medium. The medium was removed completely at various time points, and at each sampling time fresh medium was introduced. The medium's drug concentration was determined using Jasco High Performance Liquid Chromatography (HPLC) with a UV 2075 plus detector and a reverse phase column kept at 25° C.

The nature of series [4]: In vitro HRP release from porous films in PBS at 37° C. (micro BCA). How it is done:
Small 1.5 cm by 2.0 cm films (four samples) were immersed in phosphate-buffered saline (PBS) at 37° C. for 28 days in order to determine the HRP release kinetics from these structures. The release studies were conducted in closed glass tubes containing 2.0 ml PBS medium. The medium was removed (completely) periodically, at each sampling time, and fresh medium was introduced. Sampling was carried out at 0.5, 1, 2, 3, 7, 14, 21 and 28 days.
The HRP concentration of each medium sample was determined using the micro BCA assay method, by measuring absorbance at 562 nm, using a SpectraMax 340 PC^384 plate reader spectrophotometer. Cumulative HRP release profiles were determined relative to the initial amount of HRP in the composite fibers (HRP released during the incubation period+the residue remaining in the fibers). Four repetitions were performed for each sample, and the results are presented as means±one standard deviation.

Setting [5] is: drug-loaded 50:50 PDLGA 17.5% w/v film, no surfactant, 28 000 rpm.
The mark [6] stands for this setting: drug-loaded film, BSA (1%), 14 000 rpm.
Setting [7] is: drug-loaded film, BSA (1%), 28 000 rpm.
The mark [8] stands for this setting: drug-loaded film, no surfactant, 14 000 rpm.
Where [9] appears, read: drug-loaded film, BSA (5%), 28 000 rpm.
The mark [10] stands for this setting: drug-loaded film, BSA (5%), 28 000 rpm, listed as paclitaxel.
Setting [11] is: 5% w/v BSA film versus film with no surfactant, 28000 rpm.
[12] abbreviates: as reference formulation A but 0.5% w/w HRP.
[13] abbreviates: as reference formulation A but 15% w/v polymer.
[14] abbreviates: as reference formulation A but 25% w/v polymer.
Setting [15] is: as reference formulation A but 75/25 PDLGA.
[16] abbreviates: as reference formulation A but O:A 2:1.
Setting [17] is: as reference formulation A but O:A 8:1.
The mark [18] stands for this setting: as reference formulation A but polymer initial MW 50 kDa.
Setting [19] is: as reference formulation A but polymer initial MW 185 kDa.
Where [20] appears, read: HRP film, reference formulation A (1.0% w/w HRP, 17.5% w/v, O:A 4:1, 50/50, 83 kDa).
[21] abbreviates: as reference formulation A but 2.0% w/w HRP.
Where [22] appears, read: as reference formulation A but 20% w/v polymer.
Where [23] appears, read: as reference formulation A but O:A 6:1.

Several values for one entry are separate records, joined by “and”; a condition that tells them apart may be missing. Equal entries are not always repeated. Bounds are passed on as bounds.

On to `CC(C)(O/N=C(\C(=O)N[C@@H]1C(=O)N2C(C(=O)[O-])=C(C[n+]3ccccc3)CS[C@H]12)c1csc(N)n1)C(=O)O` [Ceftazidime hydrate, ceftazidime hydrate], for which the Mean pore diameter in series [1] (setting [5]) was 1.1 ± 0.4 μm; in series [1] (setting [6]), 1.5 ± 0.5 μm; in series [1] (setting [7]) it was 0.7 ± 0.2 μm; in series [1] (setting [8]), 1.8 ± 0.7 μm. For the same molecule, the Porosity in series [1] (setting [5]) was 77.6 ± 2.2%; in series [1] (setting [6]) it was 75.4 ± 0.5%; in series [1] (setting [7]) it was 75.6 ± 0.5%; in series [1] (setting [8]), 80.5 ± 3.0%. The Encapsulation efficiency in series [2] (setting [5]) was 37.0 ± 1.9%; in series [2] (setting [6]) it was 58.4 ± 2.3%; in series [2] (setting [7]), 50.7 ± 0.5%; in series [2] (setting [8]), 41.7 ± 1.6%. Moreover, the “time at which the drug was almost fully released” value in series [3] was not above 3 days.

On to `CC(=O)O.NCc1ccc(S(N)(=O)=O)cc1` [Mafenide acetate, 4-Aminomethylbenzenesulfonamide acetate salt], for which the Mean pore diameter turned out to be 1.1 ± 0.3 μm in series [1] (setting [5]), 1.9 ± 0.5 μm in series [1] (setting [6]), 0.8 ± 0.2 μm in series [1] (setting [7]) and 2.2 ± 0.9 μm in series [1] (setting [8]). Besides, the Porosity in series [1] (setting [5]) is reported as 88.1 ± 1.2%; in series [1] (setting [6]), 83.7 ± 2.4%; in series [1] (setting [7]), 81.7 ± 2.5%; in series [1] (setting [8]) it was 81.9 ± 2.6%. The Encapsulation efficiency in series [2] (setting [5]) stood at 71.3 ± 0.5%; in series [2] (setting [6]), 74.6 ± 4.2%; in series [2] (setting [7]), 78.1 ± 2.1%; in series [2] (setting [8]), 69.6 ± 1.0%. Moreover, the “time at which the drug was almost fully released” value in series [3] is 21 days.

Turning to `CC(=O)O[C@H]1C(=O)[C@@]2(C)[C@H]([C@H](OC(=O)c3ccccc3)[C@]3(O)C[C@H](OC(=O)[C@H](O)[C@@H](NC(=O)c4ccccc4)c4ccccc4)C(C)=C1C3(C)C)[C@]1(OC(C)=O)CO[C@@H]1C[C@@H]2O` [Paclitaxel], the Mean pore diameter in series [1] (setting [5]) is given as 2.6 ± 0.8 μm; in series [1] (setting [9]) it was 0.6 ± 0.1 μm; in series [1] (setting [10]), 0.6 μm. The Porosity is on record as 81.5 ± 3.8% in series [1] (setting [5]) and 74.8 ± 3.2% in series [1] (setting [9]). Further, the Encapsulation efficiency stood at 52.8 ± 0.6% in series [2] (setting [5]); 53% in series [2] (drug-loaded 50:50 PDLGA 17.5% w/v film, no surfactant, 28 000 rpm, listed as paclitaxel); 35.6 ± 2.9% in series [2] (setting [9]); 35% in series [2] (setting [10]). Moreover, the “effect of BSA (fine nanostructure) on burst effect” value in series [3] (setting [11]) is on record as “did not significantly affect”. In addition, the “effect of BSA (fine nanostructure) on release rate” value in series [3] (setting [11]) is given as “only a slight increase”.

For “HRP: Horseradish peroxidase, 44 kDa; served as a surfactant and a protein-type biomolecule model”, the HRP burst release was found to be 37% in series [4] (setting [12]); 74% in series [4] (as reference formulation A but 2% w/w HRP); 65% in series [4] (setting [13]); 47% in series [4] (setting [14]); 58% in series [4] (setting [16]); 48% in series [4] (setting [17]). Moreover, the HRP burst release in series [4] (setting [18]) stood at 73%; in series [4] (setting [19]), 42%; in series [4] (reference formulation A: 50/50 PDLGA 83 kDa, 17.5% w/v polymer, 1% w/w HRP, O:A 4:1), 57%. Also, the “HRP burst release rate, 75/25 PDLGA compared to 50/50 PDLGA films” value in series [4] (setting [15]) was “little difference in the burst release rates”. Further, the “Mean large pore diameter” value in series [1] (setting [20]) turned out to be 17.1 ± 2.7 μm; in series [1] (setting [12]), 16.0 ± 1.6 μm; in series [1] (setting [21]) it was 16.0 ± 1.4 μm; in series [1] (setting [22]), 16.1 ± 2.3 μm; in series [1] (setting [14]), 17.1 ± 1.9 μm; in series [1] (setting [15]), 16.6 ± 3.6 μm. Besides, the “Mean large pore diameter” value was 17.3 ± 3.3 μm in series [1] (setting [16]), 18.0 ± 3.8 μm in series [1] (setting [23]), 17.2 ± 2.1 μm in series [1] (setting [17]) and 16.4 ± 2.8 μm in series [1] (setting [19]). Further, the “Mean small pore diameter” value in series [1] (setting [20]) was 4.3 ± 0.8 μm; in series [1] (setting [12]), 4.5 ± 1.3 μm; in series [1] (setting [21]), 3.9 ± 0.4 μm; in series [1] (setting [13]), 5.5 μm and 5.5 ± 1.1 μm; in series [1] (setting [22]), 3.2 ± 0.5 μm; in series [1] (setting [14]) it was 1.5 μm and 1.5 ± 0.2 μm. Further, the “Mean small pore diameter” value in series [1] (setting [15]) is 5.9 ± 0.8 μm; in series [1] (setting [16]) it was 4.7 μm and 4.7 ± 1.0 μm; in series [1] (setting [23]), 3.0 ± 0.6 μm; in series [1] (setting [17]), 2.3 μm and 2.3 ± 0.4 μm; in series [1] (setting [18]), 7.1 μm and 7.1 ± 1.4 μm; in series [1] (setting [19]), 2.5 μm and 2.5 ± 0.6 μm. Besides, the Porosity in series [1] (setting [20]) came to 86.9 ± 2.6%; in series [1] (setting [12]) it was 88.6 ± 1.4%; in series [1] (setting [21]), 85.4 ± 2.2%; in series [1] (setting [13]) it was 88.2 ± 2.9%; in series [1] (setting [22]), 85.8 ± 2.9%; in series [1] (setting [14]) it was 82.2 ± 3.3%. Further, the Porosity in series [1] (setting [15]) is 89.2 ± 0.8%; in series [1] (setting [16]) it was 92.5% and 92.5 ± 1.0%; in series [1] (setting [23]), 82.1 ± 1.6%; in series [1] (setting [17]) it was 76.7% and 76.7 ± 2.5%; in series [1] (setting [18]), 87.7 ± 2.0%; in series [1] (setting [19]), 85.3 ± 1.2%. Moreover, the Encapsulation efficiency in series [2] (HRP film, 0.5 w/w HRP) is given as 89%; in series [2] (HRP film, 1 w/w HRP, 17.5% w/v polymer (reference formulation A)), 87%; in series [2] (HRP film, 2 w/w HRP) it was 86%; in series [2] (HRP film, 15.5% w/v polymer) it was 90%; in series [2] (HRP film, 25% w/v polymer) it was 85%.

Sorbitan monooleate [Span 80]: the “Mean pore diameter ± SD” value in series [1] (film from reference formulation B with 5% of the named surfactant, 28000 rpm for 120 seconds) is 1.5 μm and 1.5 ± 0.4 μm.
